Test results as given in the supplement of paper PMC9112550, “Optimization of the antimicrobial peptide Bac7 by deep mutational scanning” (BMC Biology, 2022).

Tested on: Escherichia coli TOP10
Experiment: shrunken log2 fold change of peptide-encoding DNA abundance (4.5 h post-induction vs induction); higher = less antimicrobial activity (less host growth inhibition)
Conditions: time post-induction: 4.5 h; library: site-saturation at positions 5, 18, 19, 20
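Also: peptides expressed intracellularly from a pBAD plasmid library in pooled LB shake-flask culture, induced with 0.3% L-arabinose, DNA abundance read by NGS, three biological replicates, DESeq2 with apeglm shrinkage.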

Sequence	shrunken log2 fold change
RRIRGRPPRLPRPRPRPLESPRP	1.12
RRIRRRPPRLPRPRPRPKDMPRP	-0.0599
RRIRQRPPRLPRPRPRPISIPRP	-0.93
RRIRTRPPRLPRPRPRPKKKPRP	-0.125
RRIRKRPPRLPRPRPRPQISPRP	-0.0814
RRIRSRPPRLPRPRPRPKMPPRP	0.0106
RRIRKRPPRLPRPRPRPVCGPRP	0.62
RRIRTRPPRLPRPRPRPPHQPRP	0.237
RRIRYRPPRLPRPRPRPKIDPRP	-0.344
RRIRIRPPRLPRPRPRPTQCPRP	-0.65
RRIRGRPPRLPRPRPRPQCMPRP	0.403
RRIRKRPPRLPRPRPRPLQFPRP	-0.076
RRIRYRPPRLPRPRPRPSKYPRP	-0.401
RRIRWRPPRLPRPRPRPMVYPRP	0.0222
RRIRFRPPRLPRPRPRPCNPPRP	-0.0333
RRIRPRPPRLPRPRPRPNKMPRP	-0.17
RRIRHRPPRLPRPRPRPSIPPRP	-0.868
RRIRWRPPRLPRPRPRPNPAPRP	0.098
RRIRCRPPRLPRPRPRPVIAPRP	-0.2
RRIRWRPPRLPRPRPRPRCYPRP	-0.0698
RRIRARPPRLPRPRPRPPIHPRP	-0.11
RRIRPRPPRLPRPRPRPNWGPRP	-0.057
RRIRHRPPRLPRPRPRPEHSPRP	-0.179
RRIRWRPPRLPRPRPRPEGEPRP	1.27
RRIRTRPPRLPRPRPRPWRFPRP	-0.0156

Sequence	shrunken log2 fold change
RRIRDRPPRLPRPRPRPRDYPRP	0.0389
RRIRCRPPRLPRPRPRPYPPPRP	-0.631
RRIRIRPPRLPRPRPRPARYPRP	-0.264
RRIRNRPPRLPRPRPRPQSDPRP	-0.174
RRIRQRPPRLPRPRPRPSMVPRP	-0.632
RRIRYRPPRLPRPRPRPANEPRP	0.0338
RRIRQRPPRLPRPRPRPVCWPRP	0.279
RRIRRRPPRLPRPRPRPDAMPRP	0.336
RRIRQRPPRLPRPRPRPVHKPRP	0.0383
RRIRIRPPRLPRPRPRPCLMPRP	-0.601
RRIRERPPRLPRPRPRPWLMPRP	-0.282
RRIRKRPPRLPRPRPRPYGLPRP	0.0165
RRIRCRPPRLPRPRPRPVRPPRP	0.504
RRIRCRPPRLPRPRPRPKNMPRP	-0.727
RRIRQRPPRLPRPRPRPFPPPRP	-0.0272
RRIRNRPPRLPRPRPRPPWHPRP	0.129
RRIRARPPRLPRPRPRPKWWPRP	0.149
RRIRARPPRLPRPRPRPKMGPRP	0.297
RRIRDRPPRLPRPRPRPVCTPRP	0.0514
RRIRSRPPRLPRPRPRPFKAPRP	-0.0415
RRIRIRPPRLPRPRPRPTGPPRP	-0.0249
RRIRHRPPRLPRPRPRPSAFPRP	-0.435
RRIRLRPPRLPRPRPRPSDQPRP	-0.18
RRIRDRPPRLPRPRPRPCISPRP	0.0261
RRIRHRPPRLPRPRPRPCSQPRP	-0.00141

Sequence	shrunken log2 fold change
RRIRARPPRLPRPRPRPSVLPRP	-0.167
RRIRERPPRLPRPRPRPCLRPRP	0.0836
RRIRDRPPRLPRPRPRPQQAPRP	0.0257
RRIRRRPPRLPRPRPRPFIAPRP	-0.253
RRIRTRPPRLPRPRPRPWHPPRP	-0.179
RRIRARPPRLPRPRPRPGDRPRP	-0.00146
RRIRARPPRLPRPRPRPLLGPRP	1.07
RRIRTRPPRLPRPRPRPNSAPRP	-0.181
RRIRVRPPRLPRPRPRPCYAPRP	-0.162
RRIRIRPPRLPRPRPRPAEMPRP	0.0228
RRIRGRPPRLPRPRPRPSQLPRP	0.461
RRIRNRPPRLPRPRPRPGPHPRP	0.0143
RRIRPRPPRLPRPRPRPVKLPRP	-0.0669
RRIRMRPPRLPRPRPRPLCVPRP	0.361
RRIRKRPPRLPRPRPRPIKVPRP	-0.386
RRIRKRPPRLPRPRPRPHNMPRP	-0.438
RRIRIRPPRLPRPRPRPWGNPRP	-0.803
RRIRSRPPRLPRPRPRPINYPRP	-0.336
RRIRHRPPRLPRPRPRPPIQPRP	0.0855
RRIRQRPPRLPRPRPRPWADPRP	0.00911
RRIRVRPPRLPRPRPRPVQPPRP	0.114
RRIRGRPPRLPRPRPRPRSWPRP	1.19
RRIRFRPPRLPRPRPRPTGYPRP	0.0801
RRIRYRPPRLPRPRPRPALNPRP	-0.541
RRIRTRPPRLPRPRPRPMQKPRP	-0.00906
